This note sets out measurements from patent US20170121318, “USE OF SMALL MOLECULE INHIBITORS TO KLF10 FOR MODULATION OF T REGULATORY CELLS AND CANCER IMMUNOTHERAPY” (THE BRIGHAM AND WOMEN'S HOSPITAL, INC., published 2017).

The target in the data set is KLF10 (TIEG1) (UniProt Q13118 Q13118:1-480). The experiment in a line: EMSA; 100 ng protein, 5 fmol probe, 5 mM MgCl2, poly(dI-dC), 0.05% NP-40, room temperature; binding inhibited by compounds #48, #48-15, #15-09. The following applies: tags: GST fusion (GST-KLF10); Novus Biologicals; label: 3' biotin. How it is done: The identified small molecule compounds were next examined for effects on KLF10 DNA-protein binding.
Sequence of KLF10 (TIEG1) (Q13118 whole entry, the tested form may be a part, one chain of several): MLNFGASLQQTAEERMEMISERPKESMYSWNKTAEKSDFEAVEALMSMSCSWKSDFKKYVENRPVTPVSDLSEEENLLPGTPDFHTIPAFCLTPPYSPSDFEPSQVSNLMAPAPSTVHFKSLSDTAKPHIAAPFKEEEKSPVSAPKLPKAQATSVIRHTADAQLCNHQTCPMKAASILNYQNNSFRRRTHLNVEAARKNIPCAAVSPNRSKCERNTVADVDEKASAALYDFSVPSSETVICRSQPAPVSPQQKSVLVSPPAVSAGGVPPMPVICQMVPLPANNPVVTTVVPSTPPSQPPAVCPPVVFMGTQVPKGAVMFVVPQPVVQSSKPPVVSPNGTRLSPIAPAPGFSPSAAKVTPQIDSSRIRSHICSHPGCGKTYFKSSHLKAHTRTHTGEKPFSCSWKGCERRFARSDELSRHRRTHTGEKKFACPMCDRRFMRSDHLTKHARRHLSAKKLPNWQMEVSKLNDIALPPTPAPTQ
KLF10 recombinant protein was obtained from Novus Biologicals. […] End-labeled oligos (1 μmol/L) were annealed in a buffer system with 10 mM Tris, 50 mM NaCl, pH 8.0 by heating at 95° C. for 5 min, then slowly cooled to 65° C. for 30 min incubation, and cooled to room temperature. […] Compounds were incubated with KLF10 in a reaction system for 4 hrs at room temperature, and then Biotin-labeled probes were added for a 1 hr incubation.

B1: KLF10 consensus DNA-binding sequence (dsDNA)
DNA 1: GCAGTGAAAAGGGGGTGTGTCAGGATGC
DNA 2: GCATCCTGACACACCCCCTTTTCACTGC
For the molecule B1, the binding result was “binds”.
